The target in the assay is SARS-CoV-2 spike protein receptor binding domain (RBD) (SARS-CoV-2, UniProt P0DTC2). Kind of assay: ELISA. In general terms: ELISA stands for enzyme-linked immunosorbent assay.

B1: bovine ACE2-Fc (bovine angiotensin I converting enzyme 2 fused to human IgG1 Fc) (Fc fusion)
chain: QSTTEEQAKTFLEKFNHEAEDLSYQSSLASWNYNTNITDENVQKMNEARAKWSAFYEEQSRMAKTYSLEEIQNLTLKRQLKALQHSGTSALSAEKSKRLNTILNKMSTIYSTGKVLDPNTQECLALEPGLDDIMENSRDYNRRLWAWEGWRAEVGKQLRPLYEEYVVLENEMARANNYEDYGDYWRGDYEVTGAGDYDYSRDQLMKDVERTFAEIKPLYEQLHAYVRAKLMHTYPSYISPTGCLPAHLLGDMWGRFWTNLYSLTVPFEHKPSIDVTEKMENQSWDAERIFKEAEKFFVSISLPYMTQGFWDNSMLTEPGDGRKVVCHPTAWDLGKGDFRIKMCTKVTMDDFLTAHHEMGHIQYDMAYAAQPYLLRNGANEGFHEAVGEIMSLSAATPHYLKALGLLAPDFHEDNETEINFLLKQALTIVGTLPFTYMLEKWRWMVFKGEIPKQQWMEKWWEMKREIVGVVEPLPHDETYCDPACLFHVAEDYSFIRYYTRTIYQFQFHEALCKTAKHEGALFKCDISNSTEAGQRLLQMLRLGKSEPWTLALENIVGIKTMDVKPLLNYFEPLFTWLKEQNRNSFVGWSTEWTPYSDQSIKVRISLKSALGENAYEWNDNEMYLFQSSVAYAMRKYFSEARNETVLFGEDNVWVSDKKPRISFKFFVTSPNNVSDIIPRTEVENAIRLSRDRINDVFQLDDNSLEFLGIQPTLGPPYEPPVT
What is called EC50 is the midpoint of the concentration-response curve. Low values mean greater potency, high ones weaker potency. Take B1: it took 1.3 nM to reach a half-maximal effect (EC50).

The values above are taken from paper doi:10.1101/2020.10.25.354548 (bioRxiv, 2020).
